Measured values as given in patent US20240018255A1.

How the values were obtained:
[1] = target: SIRPα V9 fusion Fc (mouse IgG2a) (human; mouse); test: ELISA, plate coated with SIRPα V9-Fc (mouse IgG2a), anti-hFab secondary, OD450
[2] = target: SIRPα V6 fusion Fc (mouse IgG2a) (human; mouse); test: ELISA, plate coated with SIRPα V6-Fc (mouse IgG2a), anti-hFab secondary, OD450
[3] = target: SIRPα V10 fusion Fc (mouse IgG2a) (human; mouse); test: ELISA, plate coated with SIRPα V10-Fc (mouse IgG2a), anti-hFab secondary, OD450; fit value of a flat curve, see non_binding
SIRPα V10 fusion Fc (mouse IgG2a) (human; mouse), sequence (chain, as listed by the source limits assumed): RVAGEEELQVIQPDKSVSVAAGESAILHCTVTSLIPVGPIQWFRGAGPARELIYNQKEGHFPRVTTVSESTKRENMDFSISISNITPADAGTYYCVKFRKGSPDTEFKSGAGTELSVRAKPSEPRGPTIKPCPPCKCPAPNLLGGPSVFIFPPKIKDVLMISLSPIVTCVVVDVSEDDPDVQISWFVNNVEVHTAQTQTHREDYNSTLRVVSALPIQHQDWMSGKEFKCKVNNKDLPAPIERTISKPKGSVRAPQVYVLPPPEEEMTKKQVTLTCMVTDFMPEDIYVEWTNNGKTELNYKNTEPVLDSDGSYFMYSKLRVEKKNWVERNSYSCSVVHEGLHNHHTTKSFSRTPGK

[4] = target: SIRPα V1 fusion Fc (mouse IgG2a) (human; mouse); test: ELISA, plate coated with SIRPα V1-Fc (mouse IgG2a), anti-hFab secondary, OD450; unit from the axis Log(Conc.(nM))
SIRPα V1 fusion Fc (mouse IgG2a) (human; mouse), sequence (chain, as listed by the source limits assumed): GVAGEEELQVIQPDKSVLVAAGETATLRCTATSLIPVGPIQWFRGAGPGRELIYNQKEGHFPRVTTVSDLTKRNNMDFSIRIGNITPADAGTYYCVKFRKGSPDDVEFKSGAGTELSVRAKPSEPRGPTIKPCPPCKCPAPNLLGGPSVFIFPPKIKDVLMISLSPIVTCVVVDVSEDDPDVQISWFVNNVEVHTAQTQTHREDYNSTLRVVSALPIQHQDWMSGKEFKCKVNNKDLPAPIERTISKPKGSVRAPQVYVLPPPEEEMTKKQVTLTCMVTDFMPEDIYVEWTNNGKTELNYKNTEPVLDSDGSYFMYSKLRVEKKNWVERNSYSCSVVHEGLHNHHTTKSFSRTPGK

[5] = target: SIRPα V5 fusion Fc (mouse IgG2a) (human; mouse); test: ELISA, plate coated with SIRPα V5-Fc (mouse IgG2a), anti-hFab secondary, OD450; unit from the axis Log(Conc.(nM))
SIRPα V5 fusion Fc (mouse IgG2a) (human; mouse), sequence (chain, as listed by the source limits assumed): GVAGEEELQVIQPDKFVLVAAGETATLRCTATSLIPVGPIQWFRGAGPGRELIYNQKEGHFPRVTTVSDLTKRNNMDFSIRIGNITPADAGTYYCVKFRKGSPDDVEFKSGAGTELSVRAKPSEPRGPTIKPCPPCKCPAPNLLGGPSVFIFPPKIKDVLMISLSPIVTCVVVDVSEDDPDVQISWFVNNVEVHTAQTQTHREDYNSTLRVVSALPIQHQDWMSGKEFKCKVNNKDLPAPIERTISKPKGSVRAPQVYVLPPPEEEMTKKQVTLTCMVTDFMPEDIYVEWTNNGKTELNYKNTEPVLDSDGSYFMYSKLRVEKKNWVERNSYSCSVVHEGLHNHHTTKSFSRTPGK

[6] = target: SIRPα V2 fusion Fc (mouse IgG2a) (human; mouse); test: ELISA, plate coated with SIRPα V2-Fc (mouse IgG2a), anti-hFab secondary, OD450; fit value of a flat curve, see non_binding
SIRPα V2 fusion Fc (mouse IgG2a) (human; mouse), sequence (chain, as listed by the source limits assumed): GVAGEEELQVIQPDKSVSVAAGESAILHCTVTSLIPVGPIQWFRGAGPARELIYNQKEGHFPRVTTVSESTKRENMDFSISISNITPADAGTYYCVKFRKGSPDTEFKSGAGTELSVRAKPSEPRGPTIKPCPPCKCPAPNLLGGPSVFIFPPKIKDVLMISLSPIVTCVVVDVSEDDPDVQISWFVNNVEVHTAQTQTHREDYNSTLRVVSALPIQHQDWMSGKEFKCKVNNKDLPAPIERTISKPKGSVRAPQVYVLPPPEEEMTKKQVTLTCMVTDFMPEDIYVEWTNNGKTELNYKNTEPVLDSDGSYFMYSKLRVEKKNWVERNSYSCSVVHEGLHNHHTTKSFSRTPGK

[7] = target: SIRPα V4 fusion Fc (mouse IgG2a) (human; mouse); test: ELISA, plate coated with SIRPα V4-Fc (mouse IgG2a), anti-hFab secondary, OD450
SIRPα V4 fusion Fc (mouse IgG2a) (human; mouse), sequence (chain, as listed by the source limits assumed): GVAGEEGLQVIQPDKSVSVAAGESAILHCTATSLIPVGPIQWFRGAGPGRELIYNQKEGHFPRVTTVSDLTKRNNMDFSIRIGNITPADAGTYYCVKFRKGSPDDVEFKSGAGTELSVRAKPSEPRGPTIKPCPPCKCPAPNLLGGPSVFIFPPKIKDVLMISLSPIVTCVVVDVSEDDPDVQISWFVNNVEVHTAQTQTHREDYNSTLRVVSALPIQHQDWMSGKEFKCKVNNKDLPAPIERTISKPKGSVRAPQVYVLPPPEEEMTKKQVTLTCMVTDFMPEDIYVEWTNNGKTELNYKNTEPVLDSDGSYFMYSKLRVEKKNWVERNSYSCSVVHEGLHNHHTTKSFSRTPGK

SIRPα V9 fusion Fc (mouse IgG2a) (human; mouse), sequence (chain, as listed by the source limits assumed): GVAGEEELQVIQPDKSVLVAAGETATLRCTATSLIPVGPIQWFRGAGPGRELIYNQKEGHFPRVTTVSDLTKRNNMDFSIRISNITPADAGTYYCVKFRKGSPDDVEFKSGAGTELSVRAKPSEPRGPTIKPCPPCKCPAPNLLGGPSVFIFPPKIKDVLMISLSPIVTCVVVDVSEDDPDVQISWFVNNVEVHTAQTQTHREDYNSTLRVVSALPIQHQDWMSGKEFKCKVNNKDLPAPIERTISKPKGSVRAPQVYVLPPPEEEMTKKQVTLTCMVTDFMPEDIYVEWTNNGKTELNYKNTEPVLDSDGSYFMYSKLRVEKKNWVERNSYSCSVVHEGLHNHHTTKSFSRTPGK
SIRPα V6 fusion Fc (mouse IgG2a) (human; mouse), sequence (chain, as listed by the source limits assumed): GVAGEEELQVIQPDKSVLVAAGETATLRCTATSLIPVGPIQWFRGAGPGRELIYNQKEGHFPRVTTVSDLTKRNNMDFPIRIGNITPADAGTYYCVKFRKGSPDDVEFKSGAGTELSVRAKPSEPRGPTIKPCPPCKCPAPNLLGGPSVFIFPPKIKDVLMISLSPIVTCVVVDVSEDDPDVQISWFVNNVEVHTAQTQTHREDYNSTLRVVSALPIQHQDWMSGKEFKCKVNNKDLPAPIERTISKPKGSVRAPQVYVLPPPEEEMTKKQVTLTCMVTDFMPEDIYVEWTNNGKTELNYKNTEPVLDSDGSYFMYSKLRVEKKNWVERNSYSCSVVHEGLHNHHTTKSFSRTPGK

B1: anti-SIRPα antibody 18D5 of OSE Company (antibody, from a related filing, V domains shown)
VH: QVQLQQPGAELVRPGSSVKLSCKASGYTFTSYWVHWVKQRPIQGLEWIGNIDPSDSDTHYNQKFKDKASLTVDKSSSTAYMQLSSLTFEDSAVYYCVRGGTGTMAWFAYWGQGTLVTVSA
VL: DVVMTQTPLSLPVSLGDQASISCRSSQSLVHSYGNTYLYWYLQKPGQSPKLLIYRVSNRFSGVPDRFSGSGSGTDFTLKISRVEAEDLGVYFCFQGTHVPYTFGSGTKLEIKR
EC50 (read off the curve) [1]: 0.2 nM
EC50 (read off the curve) [2]: 0.1 nM
EC50 [3]: 0.0554 nM
EC50 [4]: 0.154 nM
EC50 [5]: 0.13 nM
EC50 [6]: 0.0554 nM
EC50 (read off the curve) [7]: 0.1 nM
